Measured values as given in the supplement of paper PMC9170038.

System: K4 kissing-loop RNA reporter
Test: apparent KD of K4 kissing-loop reporter; higher = weaker reporter binding
Settings: Eterna round: R107
Procedure: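 RNA-MaP round R107: designed RNA switches with theophylline, tryptophan, arginine or FMN aptamers are transcribed on-chip within common flanks. They are titrated with a labelled K4 kissing-loop RNA reporter in RNA-MaP buffer (100 mM Tris pH 7.5, 80 mM KCl, 4 mM MgCl2), without ligand or with the indicated ligand. Median apparent KD per design.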

[1] = input ligand: theophylline 20 uM
[2] = input ligand: tryptophan 2.4 mM
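Note: bound reporter read as fluorescence of individual clusters on recovered sequencing chips by microscopy, with normalized cluster intensities fitted with a binding model.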

Row | Sequence | apparent KD of K4 kissing-loop reporter (input ligand: FMN 200 uM) | apparent KD of K4 kissing-loop reporter (input ligand: arginine 13.2 mM) | apparent KD of K4 kissing-loop reporter (input ligand: none) | apparent KD of K4 kissing-loop reporter [1] | apparent KD of K4 kissing-loop reporter [2]
1 | AGACUACCACACUGUCAAUAGACAGUGUACUAGGAUAUGCUGAUAAGCAGAAGGAGUGAUGUUCCCAGGUAGUCAAUAAAAUAAU [FmnAX 13 U28+C66] | 274 nM | 189 nM | 243 nM | 270 nM | 225 nM
2 | AGAUCUGUAACAGAUACCAGAGGACGAUGAUCGAACAGUGAUGUUAUCUGUUAGUCGUCGCUCCCUUGGCAGCUGUUACAGAUCA [Omei KL Theo B SS B v4] | 106 nM | 46.2 nM | 55.5 nM | 72.1 nM | 84.9 nM
3 | AGAUUCGACACGGCCGCCACUUGUGGUGGAUUAUCCUAUGUCGAACAUGAGUGAUGUUCAUGUACAAGGACCGGGUGUUGAGUCU [KL-XTryp-B6 #analogue] | 476 nM | 373 nM | 421 nM | 438 nM | 492 nM
4 | AGCGAUGUUUUCUCUAAGAGUGAUGUUUUUCGAGGACCGGUACGGCCGCCACUCGAAUAAAGUGUGUGGUAGUGAGCUGUUGACA [#17 K4 Tryptophan A Exclusion] | 1150 nM | 606 nM | 1110 nM | 648 nM | 804 nM
5 | AGCUCAGAGUGACUCGAUAAGAGUCACAAACGAGGACCGGUACGGCCGCCACUCGAAACAAAGAGAGUGAUGUUCUCGCUGAGCA [FiskerMod 10 - Jieux - Same State Tryptophan A] | 319 nM | 121 nM | 176 nM | 207 nM | 713 nM
6 | AGGACUCUUGUGGGUACGCAUCUAGCCGAUACCAGACUUCCAUAUGUCCCUUGGCAGCGGCAGUGAUGUUGUCGUUACGCCAUCA [theeternabot_exclusion_KL_Theo_A_34] | 140 nM | 133 nM | 147 nM | 212 nM | 131 nM
7 | AGGAGCGUGCGAUGUAAAUCGCACGCUCCACGAGGACCGGUACGGCCGCCACUCGCUCGUGCAGAGUGAUGUUCUGCCGGCGAAU [#2 Same State - Tryptophan A Attempt #24 (HarryS)] | 306 nM | 202 nM | 270 nM | 248 nM | 260 nM
8 | AGGAUCCGUCGACAAAAGUCGACAUAAACCAAGGAUAUGACGAAAGUCAGAAGGUGGUCAUAAGACCAGUGAUGUUGGUGGAUCC [FmnA 11 #SwitchBubble #K4Late] | 984 nM | 268 nM | 467 nM | 309 nM | 379 nM
9 | AGGCACGAGCAAGGAUAUUGAGUAGAGUGAUGUUCUGCCUAAGUUGGCUCGUAAGAGCCUUCUUAGCGAGAAGGUGCUCGUGCCU [#2 Same State - FMN A Attempt #27 (HarryS)] | 297 nM | 513 nM | 824 nM | 611 nM | 665 nM
10 | AGGCGACGCAAAGGAUAUCACGGUUUUCUAGUGAUGUUAGUCAAGACCGACCGAGAAAUCAGUGUUUGAGAAGGUUGAACGUCGC [theeternabot_sameState_KL_FMN_B_46] | 496 nM | 682 nM | 1870 nM | 756 nM | 970 nM
11 | AGGGACUCUUCGGAGUCCCGGUUAAGGGAUACCAGUGAUGUUGGUCACCCUUGGCAGCCCAGAAACCAAGCCACCAAAGGUGGCA [Omei KL Theo A Exc A v2] | 150 nM | 127 nM | 133 nM | 211 nM | 121 nM
12 | AGGUAUGUCUGAAGGAGCGACUAAGAAGCAGUGAUGUUGCUAAGUAGUAAGUAGCUACGUAGUCAGGUAGGUCGCAGAUAUACCU [Arg B SS t14] | 322 nM | 348 nM | 257 nM | 349 nM | 189 nM
13 | AGGUUUUGAUUAGGAUAUGCACUGACGACGAGAAUAUAGUGAUGUUAUAUAAUAGGAAUUAGUAGAGUAGAAGGGAUUGAGGUUU [SSFMNB.W] | 261 nM | 168 nM | 277 nM | 342 nM | 190 nM
14 | AGUAGGAAACUACAAUCCUCUCUUACUGAAGGAGCGCGUGAAAACGCAGGUAGGUCGCAGGAUUGGAGAGUGAUGUUCUCCUUAA [Ex Arginine A K4 17] | 311 nM | 331 nM | 441 nM | 413 nM | 320 nM
15 | AGUAUGGCAACAUUGCAAGUAGCCGUACCACGAGGACCGGUACGGCCGCCACUCGAUAACUUGCAGUGAUGUUGCAAGUAAGAAU [(T)''-(K)'-(T)'-(T1)-(T2)-(K1)-(K2)_Design4] | 193 nM | 206 nM | 227 nM | 268 nM | 199 nM
16 | AGUCUCAAAAGAGGCAGCACUCACGAGGACAAGGAUAUCAUCUCAAUGAGAAGGUGUCCUCGUCCCUAGUGAUGUUAGGGAGUGC [Omei KL FMN A SS E v6] | 205 nM | 265 nM | 305 nM | 682 nM | 437 nM
17 | AGUGAUAUAUGAGGAUAUGGGUUAAUUAGUGAGUUAUUUUUAGUGUUGUUUGAUUAGUGAUGUUAUUUAGAAGGCGUGAGUGAUG [awwswmjmullin] | 113 nM | 75 nM | 67.5 nM | 130 nM | 61.7 nM
18 | AGUGAUGUUGAGUUAUCUUAGUGAAGUGAUCGAGGACCGGUACGGCCGCCACUCGAGUGAUGAGUGAGUGAUGUUUGUUUAGGGA [llkmullin] | 695 nM | 780 nM | 897 nM | 765 nM | 413 nM
19 | AGUGAUGUUUCUUUUAAGAGUGAUGUUUUUCGAGGACCGGUACGGCCGCCACUCGAGUGAUGAGUGCGUCGUUGUGGUGAUUAGU [#13 K4 Tryptophan A Exclusion] | 483 nM | 281 nM | 463 nM | 379 nM | 229 nM
20 | AGUGGACAUGUCUAGAGUGAUGUUCUGGAUACCAGACACGAAAGUGUCCCUUGGCAGCCGGAGUGAUGUUCUGGAGUUCACUAAA [Omei KL Theo A Exc B v8] | 612 nM | 296 nM | 550 nM | 485 nM | 436 nM
21 | AGUGGACGUGUCCGGAGUGAUGUUCAGGAUACCAGACACGAAAGUGUCCCUUGGCAGCCGGAGUGAUGUUCCGGCGUUCACUAAA [Omei KL Theo A Exc B v4] | 459 nM | 248 nM | 360 nM | 419 nM | 321 nM
